Assay results as given in US20230054375A1 (UAB RESEARCH FOUNDATION, published 2023).

Target: CD47 receptor (plate-coated and soluble antigen of the affinity ELISA) (UniProt Q08722 19-141, limits assumed)
Assay: ELISA of equilibrated mAb/receptor mixtures on CD47-coated plate (Friguet method)
Method: Briefly, the 96-well plate was coated with 200 ng of CD47 receptor in 100 μL of coating buffer (50 mM carbonate-bicarbonate buffer, pH 9.6) and incubated at 4° C. overnight. The plate was washed three times with PBS containing 0.05% Tween 20, and blocked with 2% BSA (bovine serum albumin). […] After incubating at 37° C. for 1 hr, 100 μL of HRP goat anti-mouse IgG secondary antibody (Abcam, Cambridge, Mass.) at concentration of 50 ng/mL was added to each well and incubated at 37° C. for 1 hr, followed with TMB substrate for color development. The reaction was stopped by adding 100 μL of 1M sulfuric acid. The absorbance was recorded with BioTek plate reader at a wavelength of 450 nm.

Sequence of CD47 receptor (plate-coated and soluble antigen of the affinity ELISA) (Q08722 19-141 limits assumed): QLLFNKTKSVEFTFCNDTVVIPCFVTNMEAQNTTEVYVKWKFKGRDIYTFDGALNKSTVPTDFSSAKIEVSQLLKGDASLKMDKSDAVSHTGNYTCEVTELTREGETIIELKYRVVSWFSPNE

- Kd: 2.3 nM
B1: anti-CD47 monoclonal antibody (IgG2b/kappa) (antibody, V domains shown)
VH: EVQLVESGGGLVQPKGSLKLSCAASGFTFNTYAMNWVRQAPGKGLEWIARIRSKSNNYATYYADSMKDRFTISRDDSQSMLYLQMNNLKTEDTAMYYCVRPAQGAMDYWGHGTSVTVSS
VL: DIVLTQSPATLSVTPGDSVSLSCRASQRISNNLHWYQQKSHESPRLLIKYSSQSISGIPSRFSGSGSGTDFTLSINSVETEDFGMYFCQQSNAWPYTFGGGTKLEIRR
notes: The antibody was labelled with Alexa Fluor 647 for flow cytometry and confocal imaging; also called anti-CD47 mAb; CD47 mAb
